Data: PMC4203122, “Insights into transcriptional regulation of β-D-N-acetylhexosaminidase, an N-glycan-processing enzyme involved in ripening-associated fruit softening”

B1: CArG box 5 (26 bp) (dsDNA)
DNA 1: CACAAAAACATAATTATGCTTCTTAC
DNA 2: GTAAGAAGCATAATTATGTTTTTGTG
B2: CArG (26 bp, box 6) (dsDNA)
DNA 1: TTCATATTCCAAAATTTGATATTTTA
DNA 2: TAAAATATCAAATTTTGGAATATGAA
B3: mCArG (26 bp, box 6 mutated) (dsDNA)
DNA 1: TTCATATTTCAAAATTTAATATTTTA
DNA 2: TAAAATATTAAATTTTGAAATATGAA
B4: SlASR1 promoter CArG (26 bp) (dsDNA)
DNA 1: AAGCAAAACATAAAATTGACTTGAAT
DNA 2: ATTCAAGTCAATTTTATGTTTTGCTT

Assays:
[1] = biological target: T1, RIN139N (GST-RIN, N-terminal) (Solanum lycopersicum, UniProt Q8S4L4 1-139); assay: EMSA; intense signal; 20 mM HEPES pH 7.5, 20% glycerol, 0.05 ug poly(dIdC), 2.5 mM EDTA, 2.5 mM DTT, 25 mM NaCl, plus 0.8 mM ZnCl2 (SlASR1) or 10 mM MgCl2 (RIN), 25 C, 30 min; 6% native PAGE 0.5x TBE; conditions: protein: recombinant; tags: N-terminal GST; chain copies: 2; label: 5'-32P
T1 sequence (Q8S4L4 entry or part of it): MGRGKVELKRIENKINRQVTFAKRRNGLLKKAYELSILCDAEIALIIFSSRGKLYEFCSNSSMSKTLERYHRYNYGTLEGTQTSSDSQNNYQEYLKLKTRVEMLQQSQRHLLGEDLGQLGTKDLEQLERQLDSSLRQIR

[2] = biological target: T1, RIN139N (GST-RIN, N-terminal); assay: EMSA; 20 mM HEPES pH 7.5, 20% glycerol, 0.05 ug poly(dIdC), 2.5 mM EDTA, 2.5 mM DTT, 25 mM NaCl, plus 0.8 mM ZnCl2 (SlASR1) or 10 mM MgCl2 (RIN), 25 C, 30 min; 6% native PAGE 0.5x TBE; conditions: protein: recombinant; tags: N-terminal GST; chain copies: 2; label: 5'-32P

Binder | binding result [1] | binding result [2]
B1 | binds | 
B2 | binds | 
B3 |  | no binding
B4 |  | binds
